Data taken from paper PMC9581978, “The iron-sulfur cluster is essential for DNA binding by human DNA polymerase ε”.

What was measured:
[1] = biological target: hPolεCDM (C654S/C663S), [4Fe-4S]-deficient (human, UniProt Q07864 28-1194, C654S;C663S); experiment: EMSA; no mobility effect at 4-fold molar excess over DNA; EMSA: 20 mM Tris-Hepes pH 7.8, 100 mM NaCl, 2% glycerol, 2 mM TCEP, 0.2 mg/mL BSA, 0.5 uM DNA, 5 min room temperature; BLI: 30 mM Tris-Hepes pH 7.8, 100 or 150; conditions: protein: recombinant; tags: N-terminal His-Sumo, His-tag digested during purification; label: 5'-Cy3; single strand
[2] = biological target: hPolεCD (insect), catalytic domain of DNA polymerase ε p261, iron-poor (7.3% iron) (human, UniProt Q07864 28-1194); experiment: BLI; 100 mM NaCl; active enzyme concentration; kon 162 mM-1 s-1, koff 34.2e-3 s-1; EMSA: 20 mM Tris-Hepes pH 7.8, 100 mM NaCl, 2% glycerol, 2 mM TCEP, 0.2 mg/mL BSA, 0.5 uM DNA, 5 min room temperature; BLI: 30 mM Tris-Hepes pH 7.8, 100 or 150; conditions: protein: recombinant; tags: cleavable N-terminal His-Tev, digested during purification; label: 5'-biotin-TEG on template (strand 1); template 5' overhang 9 nt, 3' overhang 3 nt; primer annealed at 2-fold excess
[3] = biological target: hPolεCD (E. coli), catalytic domain of DNA polymerase ε p261, CysX [4Fe-4S] cluster (63% iron) (human, UniProt Q07864 28-1194); experiment: BLI; 100 mM NaCl; active enzyme concentration; kon 252 mM-1 s-1, koff 41.9e-3 s-1; EMSA: 20 mM Tris-Hepes pH 7.8, 100 mM NaCl, 2% glycerol, 2 mM TCEP, 0.2 mg/mL BSA, 0.5 uM DNA, 5 min room temperature; BLI: 30 mM Tris-Hepes pH 7.8, 100 or 150; conditions: protein: recombinant; tags: N-terminal His-Sumo, His-tag digested during purification; label: 5'-biotin-TEG on template (strand 1); template 5' overhang 9 nt, 3' overhang 3 nt; primer annealed at 2-fold excess
hPolεCD (E. coli), catalytic domain of DNA polymerase ε p261, CysX [4Fe-4S] cluster (63% iron), sequence (Q07864 28-1194): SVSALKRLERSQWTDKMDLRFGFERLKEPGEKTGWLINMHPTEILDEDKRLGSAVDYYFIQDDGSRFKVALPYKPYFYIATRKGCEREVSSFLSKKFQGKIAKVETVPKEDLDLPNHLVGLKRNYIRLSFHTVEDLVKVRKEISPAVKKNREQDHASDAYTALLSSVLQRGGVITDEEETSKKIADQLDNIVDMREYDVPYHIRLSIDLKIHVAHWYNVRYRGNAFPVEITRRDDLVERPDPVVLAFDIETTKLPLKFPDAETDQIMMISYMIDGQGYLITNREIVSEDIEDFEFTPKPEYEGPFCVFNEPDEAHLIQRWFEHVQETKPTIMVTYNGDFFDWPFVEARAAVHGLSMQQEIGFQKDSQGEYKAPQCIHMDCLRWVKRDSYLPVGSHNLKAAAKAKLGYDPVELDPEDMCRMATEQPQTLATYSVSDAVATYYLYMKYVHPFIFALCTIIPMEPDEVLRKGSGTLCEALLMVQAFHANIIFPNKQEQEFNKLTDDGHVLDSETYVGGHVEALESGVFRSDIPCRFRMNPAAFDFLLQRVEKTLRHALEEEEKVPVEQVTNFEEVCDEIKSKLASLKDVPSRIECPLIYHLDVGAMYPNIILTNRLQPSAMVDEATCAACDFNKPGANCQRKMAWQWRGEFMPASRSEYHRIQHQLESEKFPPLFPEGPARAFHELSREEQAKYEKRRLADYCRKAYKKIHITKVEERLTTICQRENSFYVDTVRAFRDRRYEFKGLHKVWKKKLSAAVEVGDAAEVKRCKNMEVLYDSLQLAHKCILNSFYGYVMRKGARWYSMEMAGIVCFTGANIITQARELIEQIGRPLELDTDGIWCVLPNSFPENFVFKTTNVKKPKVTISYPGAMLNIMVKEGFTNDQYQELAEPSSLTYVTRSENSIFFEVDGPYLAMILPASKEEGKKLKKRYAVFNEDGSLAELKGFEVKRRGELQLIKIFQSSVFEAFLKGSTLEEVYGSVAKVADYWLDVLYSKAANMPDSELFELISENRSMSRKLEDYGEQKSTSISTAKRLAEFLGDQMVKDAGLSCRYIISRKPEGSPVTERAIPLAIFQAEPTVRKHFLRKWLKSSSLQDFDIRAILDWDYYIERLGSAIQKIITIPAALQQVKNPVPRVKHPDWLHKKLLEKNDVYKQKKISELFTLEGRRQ

hPolεCDM (C654S/C663S), [4Fe-4S]-deficient, sequence (Q07864 28-1194 C654S/C663S): as the sequence (Q07864 28-1194) above, with C627S, C636S counted along it
hPolεCD (insect), catalytic domain of DNA polymerase ε p261, iron-poor (7.3% iron), sequence (Q07864 28-1194): as the sequence (Q07864 28-1194) above

Row | Binder | binding result [1] | Kd [2] [nM] | Kd [3] [nM]
1 | GGACTCCGAGCTGCC (ssDNA) [15-mer Cy3 primer alone] | no binding | – | –
2 | Octet 23-mer template / 11-mer 3'-ddC primer (dsDNA, 3'-dideoxycytidine on primer (strand 2)) DNA 1: AATACATAAGCGCTCCAGGCAAT DNA 2: GCCTGGAGCGC | – | 213 ± 43 | 167 ± 24
